From patent US20230021388A1 (VELOSBIO, published 2023)

B1: Ab1 Fab variant H3 Y138Q (Fab, V domains shown)
VH: QVQLQESGPGLVKPSQTLSLTCTVSGYAFTAYNIHWVRQAPGQGLEWMGSFDPYDGGSSYNQKFKDRLTISKDTSKNQVVLTMTNMDPVDTATYYCARGWYYFDQWGHGTLVTVSS
VL: DIVMTQTPLSLPVTPGEPASISCRASKSISKYLAWYQQKPGQAPRLLIYSGSTLQSGIPPRFSGSGYGTDFTLTINNIESEDAAYYFCQQHDESPYTFGEGTKVEIK
notes: Fab
B2: Ab1 Fab variant L3 T138S (Fab, V domains shown)
VH: QVQLQESGPGLVKPSQTLSLTCTVSGYAFTAYNIHWVRQAPGQGLEWMGSFDPYDGGSSYNQKFKDRLTISKDTSKNQVVLTMTNMDPVDTATYYCARGWYYFDYWGHGTLVTVSS
VL: DIVMTQTPLSLPVTPGEPASISCRASKSISKYLAWYQQKPGQAPRLLIYSGSTLQSGIPPRFSGSGYGTDFTLTINNIESEDAAYYFCQQHDESPYSFGEGTKVEIK
notes: Fab
B3: Ab1 Fab variant L3 S135V (Fab, V domains shown)
VH: QVQLQESGPGLVKPSQTLSLTCTVSGYAFTAYNIHWVRQAPGQGLEWMGSFDPYDGGSSYNQKFKDRLTISKDTSKNQVVLTMTNMDPVDTATYYCARGWYYFDYWGHGTLVTVSS
VL: DIVMTQTPLSLPVTPGEPASISCRASKSISKYLAWYQQKPGQAPRLLIYSGSTLQSGIPPRFSGSGYGTDFTLTINNIESEDAAYYFCQQHDEVPYTFGEGTKVEIK
notes: Fab
B4: Ab1 Fab variant L3 H109N (Fab, V domains shown)
VH: QVQLQESGPGLVKPSQTLSLTCTVSGYAFTAYNIHWVRQAPGQGLEWMGSFDPYDGGSSYNQKFKDRLTISKDTSKNQVVLTMTNMDPVDTATYYCARGWYYFDYWGHGTLVTVSS
VL: DIVMTQTPLSLPVTPGEPASISCRASKSISKYLAWYQQKPGQAPRLLIYSGSTLQSGIPPRFSGSGYGTDFTLTINNIESEDAAYYFCQQNDESPYTFGEGTKVEIK
notes: Fab
B5: Ab1 Fab variant H3 Y138V (Fab, V domains shown)
VH: QVQLQESGPGLVKPSQTLSLTCTVSGYAFTAYNIHWVRQAPGQGLEWMGSFDPYDGGSSYNQKFKDRLTISKDTSKNQVVLTMTNMDPVDTATYYCARGWYYFDVWGHGTLVTVSS
VL: DIVMTQTPLSLPVTPGEPASISCRASKSISKYLAWYQQKPGQAPRLLIYSGSTLQSGIPPRFSGSGYGTDFTLTINNIESEDAAYYFCQQHDESPYTFGEGTKVEIK
notes: Fab
B6: Ab1 Fab variant L3 Q107S (Fab, V domains shown)
VH: QVQLQESGPGLVKPSQTLSLTCTVSGYAFTAYNIHWVRQAPGQGLEWMGSFDPYDGGSSYNQKFKDRLTISKDTSKNQVVLTMTNMDPVDTATYYCARGWYYFDYWGHGTLVTVSS
VL: DIVMTQTPLSLPVTPGEPASISCRASKSISKYLAWYQQKPGQAPRLLIYSGSTLQSGIPPRFSGSGYGTDFTLTINNIESEDAAYYFCSQHDESPYTFGEGTKVEIK
notes: Fab
B7: Ab1 Fab variant L3 H109Q (Fab, V domains shown)
VH: QVQLQESGPGLVKPSQTLSLTCTVSGYAFTAYNIHWVRQAPGQGLEWMGSFDPYDGGSSYNQKFKDRLTISKDTSKNQVVLTMTNMDPVDTATYYCARGWYYFDYWGHGTLVTVSS
VL: DIVMTQTPLSLPVTPGEPASISCRASKSISKYLAWYQQKPGQAPRLLIYSGSTLQSGIPPRFSGSGYGTDFTLTINNIESEDAAYYFCQQQDESPYTFGEGTKVEIK
notes: Fab
B8: Ab1 Fab variant L3 D110H (Fab, V domains shown)
VH: QVQLQESGPGLVKPSQTLSLTCTVSGYAFTAYNIHWVRQAPGQGLEWMGSFDPYDGGSSYNQKFKDRLTISKDTSKNQVVLTMTNMDPVDTATYYCARGWYYFDYWGHGTLVTVSS
VL: DIVMTQTPLSLPVTPGEPASISCRASKSISKYLAWYQQKPGQAPRLLIYSGSTLQSGIPPRFSGSGYGTDFTLTINNIESEDAAYYFCQQHHESPYTFGEGTKVEIK
notes: Fab
B9: Ab1 Fab variant L3 Q108L (Fab, V domains shown)
VH: QVQLQESGPGLVKPSQTLSLTCTVSGYAFTAYNIHWVRQAPGQGLEWMGSFDPYDGGSSYNQKFKDRLTISKDTSKNQVVLTMTNMDPVDTATYYCARGWYYFDYWGHGTLVTVSS
VL: DIVMTQTPLSLPVTPGEPASISCRASKSISKYLAWYQQKPGQAPRLLIYSGSTLQSGIPPRFSGSGYGTDFTLTINNIESEDAAYYFCQLHDESPYTFGEGTKVEIK
notes: Fab
B10: Ab1 Fab variant L3 E111I (Fab, V domains shown)
VH: QVQLQESGPGLVKPSQTLSLTCTVSGYAFTAYNIHWVRQAPGQGLEWMGSFDPYDGGSSYNQKFKDRLTISKDTSKNQVVLTMTNMDPVDTATYYCARGWYYFDYWGHGTLVTVSS
VL: DIVMTQTPLSLPVTPGEPASISCRASKSISKYLAWYQQKPGQAPRLLIYSGSTLQSGIPPRFSGSGYGTDFTLTINNIESEDAAYYFCQQHDISPYTFGEGTKVEIK
notes: Fab
B11: Ab1 Fab variant L3 E111L (Fab, V domains shown)
VH: QVQLQESGPGLVKPSQTLSLTCTVSGYAFTAYNIHWVRQAPGQGLEWMGSFDPYDGGSSYNQKFKDRLTISKDTSKNQVVLTMTNMDPVDTATYYCARGWYYFDYWGHGTLVTVSS
VL: DIVMTQTPLSLPVTPGEPASISCRASKSISKYLAWYQQKPGQAPRLLIYSGSTLQSGIPPRFSGSGYGTDFTLTINNIESEDAAYYFCQQHDLSPYTFGEGTKVEIK
notes: Fab
B12: Ab1 Fab variant L3 Q108R (Fab, V domains shown)
VH: QVQLQESGPGLVKPSQTLSLTCTVSGYAFTAYNIHWVRQAPGQGLEWMGSFDPYDGGSSYNQKFKDRLTISKDTSKNQVVLTMTNMDPVDTATYYCARGWYYFDYWGHGTLVTVSS
VL: DIVMTQTPLSLPVTPGEPASISCRASKSISKYLAWYQQKPGQAPRLLIYSGSTLQSGIPPRFSGSGYGTDFTLTINNIESEDAAYYFCQRHDESPYTFGEGTKVEIK
notes: Fab
B13: Ab1 Fab variant L3 S135H (Fab, V domains shown)
VH: QVQLQESGPGLVKPSQTLSLTCTVSGYAFTAYNIHWVRQAPGQGLEWMGSFDPYDGGSSYNQKFKDRLTISKDTSKNQVVLTMTNMDPVDTATYYCARGWYYFDYWGHGTLVTVSS
VL: DIVMTQTPLSLPVTPGEPASISCRASKSISKYLAWYQQKPGQAPRLLIYSGSTLQSGIPPRFSGSGYGTDFTLTINNIESEDAAYYFCQQHDEHPYTFGEGTKVEIK
notes: Fab
B14: Ab1 Fab variant L3 S135G (Fab, V domains shown)
VH: QVQLQESGPGLVKPSQTLSLTCTVSGYAFTAYNIHWVRQAPGQGLEWMGSFDPYDGGSSYNQKFKDRLTISKDTSKNQVVLTMTNMDPVDTATYYCARGWYYFDYWGHGTLVTVSS
VL: DIVMTQTPLSLPVTPGEPASISCRASKSISKYLAWYQQKPGQAPRLLIYSGSTLQSGIPPRFSGSGYGTDFTLTINNIESEDAAYYFCQQHDEGPYTFGEGTKVEIK
notes: Fab
B15: Ab1 Fab variant H3 Y138T (Fab, V domains shown)
VH: QVQLQESGPGLVKPSQTLSLTCTVSGYAFTAYNIHWVRQAPGQGLEWMGSFDPYDGGSSYNQKFKDRLTISKDTSKNQVVLTMTNMDPVDTATYYCARGWYYFDTWGHGTLVTVSS
VL: DIVMTQTPLSLPVTPGEPASISCRASKSISKYLAWYQQKPGQAPRLLIYSGSTLQSGIPPRFSGSGYGTDFTLTINNIESEDAAYYFCQQHDESPYTFGEGTKVEIK
notes: Fab
B16: Ab1 Fab variant L3 S135P (Fab, V domains shown)
VH: QVQLQESGPGLVKPSQTLSLTCTVSGYAFTAYNIHWVRQAPGQGLEWMGSFDPYDGGSSYNQKFKDRLTISKDTSKNQVVLTMTNMDPVDTATYYCARGWYYFDYWGHGTLVTVSS
VL: DIVMTQTPLSLPVTPGEPASISCRASKSISKYLAWYQQKPGQAPRLLIYSGSTLQSGIPPRFSGSGYGTDFTLTINNIESEDAAYYFCQQHDEPPYTFGEGTKVEIK
notes: Fab
B17: Ab1 Fab variant L3 T138F (Fab, V domains shown)
VH: QVQLQESGPGLVKPSQTLSLTCTVSGYAFTAYNIHWVRQAPGQGLEWMGSFDPYDGGSSYNQKFKDRLTISKDTSKNQVVLTMTNMDPVDTATYYCARGWYYFDYWGHGTLVTVSS
VL: DIVMTQTPLSLPVTPGEPASISCRASKSISKYLAWYQQKPGQAPRLLIYSGSTLQSGIPPRFSGSGYGTDFTLTINNIESEDAAYYFCQQHDESPYFFGEGTKVEIK
notes: Fab
B18: Ab1 Fab variant L3 Y137T (Fab, V domains shown)
VH: QVQLQESGPGLVKPSQTLSLTCTVSGYAFTAYNIHWVRQAPGQGLEWMGSFDPYDGGSSYNQKFKDRLTISKDTSKNQVVLTMTNMDPVDTATYYCARGWYYFDYWGHGTLVTVSS
VL: DIVMTQTPLSLPVTPGEPASISCRASKSISKYLAWYQQKPGQAPRLLIYSGSTLQSGIPPRFSGSGYGTDFTLTINNIESEDAAYYFCQQHDESPTTFGEGTKVEIK
notes: Fab
B19: Ab1 Fab variant L3 Q108A (Fab, V domains shown)
VH: QVQLQESGPGLVKPSQTLSLTCTVSGYAFTAYNIHWVRQAPGQGLEWMGSFDPYDGGSSYNQKFKDRLTISKDTSKNQVVLTMTNMDPVDTATYYCARGWYYFDYWGHGTLVTVSS
VL: DIVMTQTPLSLPVTPGEPASISCRASKSISKYLAWYQQKPGQAPRLLIYSGSTLQSGIPPRFSGSGYGTDFTLTINNIESEDAAYYFCQAHDESPYTFGEGTKVEIK
notes: Fab
B20: Ab1 Fab variant L3 D110N (Fab, V domains shown)
VH: QVQLQESGPGLVKPSQTLSLTCTVSGYAFTAYNIHWVRQAPGQGLEWMGSFDPYDGGSSYNQKFKDRLTISKDTSKNQVVLTMTNMDPVDTATYYCARGWYYFDYWGHGTLVTVSS
VL: DIVMTQTPLSLPVTPGEPASISCRASKSISKYLAWYQQKPGQAPRLLIYSGSTLQSGIPPRFSGSGYGTDFTLTINNIESEDAAYYFCQQHNESPYTFGEGTKVEIK
notes: Fab

target: T1, recombinant human ROR1 extracellular domain (human, UniProt Q01973 30-406); assay: capture filter lift
T1 construct: biotinylated for the filter lifts; also called huROR1-ECD; human ROR1-ECD
T1 sequence (Q01973 30-406 limits assumed): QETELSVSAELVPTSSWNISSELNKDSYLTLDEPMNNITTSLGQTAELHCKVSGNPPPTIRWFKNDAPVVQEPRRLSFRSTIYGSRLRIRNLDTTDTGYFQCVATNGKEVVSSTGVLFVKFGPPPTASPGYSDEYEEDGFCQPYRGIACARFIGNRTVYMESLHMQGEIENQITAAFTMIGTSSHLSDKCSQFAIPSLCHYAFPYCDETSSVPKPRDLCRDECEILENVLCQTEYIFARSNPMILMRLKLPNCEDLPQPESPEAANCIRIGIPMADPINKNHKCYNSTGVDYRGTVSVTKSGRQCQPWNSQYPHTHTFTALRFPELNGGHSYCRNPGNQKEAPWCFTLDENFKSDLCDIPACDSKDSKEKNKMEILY
Description: Subsequently, the filter was applied to the agar plates as described above. For detection of antigen binding, the filter was rinsed briefly in PBS, and transferred to biotinylated huROR1-ECD (ACROBiosystems, cat. #RO1-H522y) in 5% M-P.
Filters were incubated with 2.3 nM biotinylated ROR1 diluted in 5% M-P for 2 h at 25° C. with constant agitation, and washed 5 times, 2 minutes each wash, with constant agitation in PBS-T. Alternatively, filters were washed more rapidly using a squirt bottle and sintered glass funnel for vacuum filtration. The filters were transferred to 10 mL of High Sensitivity Neutravidin, HRP conjugate (Thermo Scientific, cat. #31030) diluted 5000-fold in 1% BSA in PBS and incubated for 1 h at 25° C. The filters were then washed 5 times in PBS-T and were developed with 1-Step Ultra TMB-Blotting.
All libraries were initially screened by capture lift to identify variants with improved binding. The capture lift assay, described in Example 1, enables the filter lift assay to discern variants that bind antigen more strongly based on the staining intensity. In order to determine the optimal concentration of antigen to use for screening, biotinylated huROR1-ECD was titrated on a capture lift of Ab1 Fab. Binding to Ab1 was clearly visible at antigen concentrations ≥23 nM and the signal was diminished at lower huROR1 concentrations. […] In addition, for more stringent screening, filters were probed with lower concentrations of antigen and/or development of the filter was terminated earlier, before the Ab1 staining was visible. […] In this example, approximately 250 library variants were plated. Twelve variants clearly bound huROR1 (FIG. 4, numbered).

Binder	binding result
B1	binds
B2	binds
B3	binds
B4	binds
B5	binds
B6	binds
B7	binds
B8	binds
B9	binds
B10	binds
B11	binds
B12	binds
B13	binds
B14	binds
B15	binds
B16	binds
B17	binds
B18	binds
B19	binds
B20	binds
